# In publication PMC12622308:
# Target: KFERQ-PAmCherry-Flag
# Assay: co-IP (IP: HA, IB: Flag), western blot quantification
# Details: HEK293T SIRT2KD cells; parent: est. 1.0; read off a plot
substance,measurement,value
HSC70-HA WT (from UniProt P11142) K557R,ratio to parent,1.6
